The target of assay [1] is T1, SARS-CoV-2 spike S2 [aa 1149-1167] peptide (SARS-CoV-2, UniProt P0DTC2).
T1 chain: KEELDKYFKNHTSPDVDLG
The assay can be described thus: crystal structure.

In assay [2] the target is T2, SARS-CoV-2 spike S2 stem helix peptide (amino acid 1143 - 1162) (SARS-CoV-2, UniProt P0DTC2, biotin, amino-terminus).
T2 chain: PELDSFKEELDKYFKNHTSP
The assay can be described thus: SPR. On the technique in general: In SPR one partner is held on a chip, and binding of the other changes the refractive index at the surface.

The target of assay [3] is LC556375.1 RBD (Sarbecovirus Rc-o319 (Rhinolophus …, strain)). In words: flow cytometry on cells. For orientation: A flow cytometer gives signals particle by particle.

B1: GB-0669 Fab (Fab, V domains shown)
VH: EVQLVESGAEVKKPGESLKISCKGSGYTFTRYWIGWVRQMPGKGLEWMGIIYPGDSDVRYSPSFQGHVTISADKSISTAYLQWNSLKASDTAMYYCARLPQYCSKGVCYRWFDPWGQGTLVTVSS
VL: EIVLTQSPSSVSASVGDRVTITCRASQGISSWLAWYQQKPGKAPKLLIYAASSLQSGVPSRFSGSGSGTDFTLTISSLQPEDFATYYCQQGHSFPYTFGQGTNLEIK
In the case of B1, the binding result in assay [1] and in assay [2] was “binds” in each case.

B2: CV3-25 Fab (Fab, V domains shown)
VH: EVQLVESGAEVKKPGESLKISCKGSGYTFTRYWIGWVRQMPGKGLEWMGIIYPGDSDTRYSPSFQGHVTISADKSISTAYLQWNSLKASDTAMYYCARLPQYCSNGVCQRWFDPWGQGTLVTVSS
VL: EIVLTQSPSSVSASVGDRVTITCRASQGISSWLAWYQQKPGKAPKLLIYAASSLQSGVPSRFSGSGSGTDFTLTISSLQPEDFATYYCQQGNSFPYTFGQGTNLEIK
Regarding B2, the binding result in assay [2] is recorded as “binds”.

B3: PRO-37587 (antibody, V domains shown)
VH: QVQLVQSGAEVKKPGSSVKVSCKASGDTSDTYTISWVRQAPGQGLEWMGRIILLSGYANYAQKIQGRVTITADKSTSTAYMELTSLRSDDTAVYYCARGFNGDYYGWGDDDAFDFWGQGTLVTVYS
VL: QTVLTQPPSVSGAPGQRVTISCTGSSSNIGAGYRVHWYQQLPGTAPKLLIAGRSNRPSGVPDRFSGSKSGTSASLAITGLQAEDEADYYCQSYDSSLFDPHWVFGGGTKLTVL
Consider B3, for which the binding result in assay [3] is “no binding (tested: 1 nM)”.
